Data on three molecules can be found in PMC5125619 (Nature, 2016).

In general, Kd refers to a measure of binding affinity in units of concentration.

Assay [1] deals with FAM-labelled RBBP5 peptide (residues 330–363) mixed with ASH2L(SPRY) (human) (UniProt Q15291). In words: fluorescence polarisation. On the technique in general: Polarisation of emitted light reports the rotation of a fluorescent probe.
For assay [2], the target named is MLL3 SET domain (human, UniProt Q8NEZ4 4757-4911). In words: crystal structure.
MLL3 SET domain (human, UniProt Q8NEZ4 4757-4911), sequence (Q8NEZ4 4757-4911): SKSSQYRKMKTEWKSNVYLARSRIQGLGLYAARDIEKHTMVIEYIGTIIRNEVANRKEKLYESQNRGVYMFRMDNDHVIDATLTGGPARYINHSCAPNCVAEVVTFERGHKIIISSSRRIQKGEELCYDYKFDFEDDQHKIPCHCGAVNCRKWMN

In assay [1], “MLL1 SET domain (from UniProt Q03164 3829-3945) (domain or fragment)” gave a Kd greater than 100000 nM.

On to “MLL3 SET domain (from UniProt Q8NEZ4 4757-4911) (domain or fragment)”, for which the equilibrium dissociation constant (Kd) in assay [1] was found to be 100 nM.

B1: H3 peptide (H3 residues 1–9) (peptide)
peptide: ARTKQTARK
With B1, the binding result in assay [2] is “binds”.
